# Experimental data as given in paper PMC5834530.
# Key:
# [1] = target: MGG_01005 (Magnaporthe oryzae dynein light chain Tctex-type 1, dynlt1/3), wild type, recombinant (Magnaporthe oryzae) (UniProt G4NCW2); test: SEC; gel filtration chromatography of MGG_01005 (Supplementary Figure S3)
# [2] = target: MGG_01005 (Magnaporthe oryzae dynein light chain Tctex-type 1, dynlt1/3), wild type, recombinant (Magnaporthe oryzae) (UniProt G4NCW2); test: AUC
# [3] = target: MGG_01005 (Magnaporthe oryzae dynein light chain Tctex-type 1, dynlt1/3), wild type, recombinant (Magnaporthe oryzae) (UniProt G4NCW2); test: ITC
# [4] = target: MGG_01005 (Magnaporthe oryzae dynein light chain Tctex-type 1, dynlt1/3), wild type, recombinant (Magnaporthe oryzae) (UniProt G4NCW2); test: ITC; remark: listed apart in the source
Substance,stoichiometry N [1],stoichiometry N [2],Kd [3],stoichiometry N [3],stoichiometry N [4],dH [3]
"MGG_01005 (Magnaporthe oryzae dynein light chain Tctex-type 1, dynlt1/3), wild type, recombinant (from UniProt G4NCW2 1-153) (natural protein)",2,2,–,–,–,–
MoDyn1I2^117–150 peptide,–,–,5.39 µM,0.55,0.4 to 0.7,–
MoDyn1I2^122–141 peptide,–,–,15.2 µM,1.13,–,-3.28 kcal/mol
